Laboratory results: US20240150744A1, “ACYL ACTIVATING ENZYME AND A TRANSGENIC CELL, TISSUE, AND ORGANISM COMPRISING SAME” (YEDA RESEARCH AND DEVELOPMENT CO. LTD., priority 2021, published 2024)
One block for each molecule: values may come before it.

Assay: AAE enzyme assay (acyl-CoA synthetase assay) of purified recombinant HuAAE proteins with an array of substrates
Assay type: biochemical
Conditions: purified recombinant enzyme from E. coli, UPLC-MS/MS peak area (FIG. 6); for activity towards butyric acid (formation of butyryl CoA): substrate butyric acid
Protocol: FIG. 6 includes vertical bar graphs showing recombinant enzyme assays of purified H. umbraculigerum acyl activating enzyme (HuAAE) proteins produced in Escherichia coli cells. Peak area is shown. Various alkyl (short-and medium-chain fatty acids) and aromatic (cinnamic and coumaric acids) substrates were used in the enzyme assays.
All AAE genes from H. umbraculigerum were individually cloned into the pET28b vector and expressed in E. coli BL21 (DE3) cells. Bacterial cells were grown in LB medium at 37° C. When cultures reached Absorbance 600=0.6, protein expression was induced with 200 μM of isopropyl-1-thio-β-d-galactopyranoside (IPTG) at 15° C., for 24 h. Bacterial cells were lysed by sonication in 50 mM Tris-HCl pH 7.5, 500 mM NaCl, 1 mM PMSF, 10% glycerol and protease inhibitor cocktail (Sigma Aldrich). An aliquot of whole-cell extract was kept for further analysis. Soluble protein was purified on Ni-NTA agarose beads (Adar Biotech) and eluted with 300 mM imidazole in buffer containing 50 mM NaH2PO4 pH-7.5 and 300 mM NaCl. The whole-cell extract, and the eluted fractions were analyzed by SDS-PAGE stained with InstatBlue.
Acyl-CoA synthetase assays were performed in a 20 μl reaction mix that contained 0.1 μg recombinant AAE, 50 mM HEPES pH 9, 8 mM ATP, 10 mM MgCl2, 0.5 mM CoA and 4 mM sodium hexanoate for 10 min at 40° C. Reactions were terminated with 2 μl of 1 M HCl and stored on ice until analysis. After centrifugation at 15 000 g for 5 min at 4° C., the samples were diluted 1:100 in water and analyzed by UPLC-MS/MS (Stout et al., 2012). injections were performed on a UPLC (Waters) connected to a Triple Quad detector (TQ-S, Waters) in multiple reaction monitoring (MRM) mode. The chromatographic separation was achieved using a similar column as previously described. The mobile phase consisted of an aqueous buffer pH 7.0 (10 mM Ammonium Acetate, 5 mM NH4HCO2, phase A) and acetonitrile (phase B). The flow rate was 0.3 ml min^−1, and the column temperature was kept at 25° C. Compounds were analyzed using a 15 min multistep gradient method: initial conditions were 1% B raised to 35% B until 10.5 min, and then raised to 100% B until 11 min, held at 100% B for 1 min, decreased to 1% B until 12.5 min, and held at 1% B until 15 min for re-equilibration of the system. The instrument was operated in positive mode with a capillary voltage of 3.0 kV, and a cone voltage of 50 V. Metabolite identity was confirmed with authentic standards (Sigma Aldrich). Two different transitions were used for analysis of: acetyl-CoA (810.52>303.30, 27.0V; 810.52>428.25, 24.0V); butyryl-CoA (838.58>331.30, 28.0 V; […]); hexanoyl-CoA (866.65>359.40, 28.0 V; 866.65 >428.25, 26.0 V); octanoyl-CoA (894.65>387.55, 30.0 V; 894.65>428.25, 28.0 V); coumaroyl-CoA (914.59>407.37, 30.0 V; 914.59>428.25, 28.0 V); cinnamoyl-CoA (898.59>391.37, 30.0 V; 898.59>428.25, 28.0 V).
Next, the inventors individually recombinantly expressed six of the eleven AAEs, each in E. coli, purified respective proteins, and examined their activity using array of substrates (acetic acid, butyric acid, hexanoic acid, octanoic acid, cinnamic acid and coumaric acid).

activity against acetic acid (formation of acetyl CoA) (substrate acetic acid): great activity
B1: HuAAE3: H. umbraculigerum acyl activating enzyme, recombinantly expressed in E. coli and purified (protein)
chain: MTEEEKNKAESMGIKTYAWSDFLHLGSKNPSELQTPKATDICTIMYTSGTSGDPKGVILTHENATTNIRGVDLFMEQFEDKMTVDDVYISFLPLAHILDRMIEEYFFRSGASVGFYHGDINALKEDLAELKPTFLAGVPRVLEKIHEGVLKGLEEVNPRRRKIFSILYNHKLKYMKAGYKHKYASPLADLLAFRKVKNRLGGRIRLMVSGGAPLSTEIEEFMRVTSCAFVAQGYGLTETCGLATLGFPDEMCMIGTVGSPFVYTELRLEEVSDMGYDPLANPPRGEICVKGKTPFAGYYKNPELTNEVMKDGWFHTGDIGEMQPNGVLKIIDRKKHLIKLSQGEYIALEYLEKVYCITPILEDIWVYGDSFKSSLVAVAVPNKENAEKWADQKGLKVSYSELCTLTQFRDYIQSELKSTAERNKLRGFEHIKAIIVEPRTFEGDQELLTATMKKRRNKLLNRYKEGIDNLYKNLAANKR

activity towards butyric acid (formation of butyryl CoA): efficiently produced butyryl CoA
B2: HuAAE4: H. umbraculigerum acyl activating enzyme, recombinantly expressed in E. coli and purified; great homology to CsAAE1 (protein)
chain: MVYKSLNSISISDIVNLGISPETATQLHQKLTEIIQIYGFDAPQTWTQISTRILHPDLPFCFHQMMYYGCYVDFGPDPPAWSPDPKDAKLTNIGSLLERRGKEFLGPSYKDPISSYSALQEFSALNLEVFWKTILDEMNITFSVPPKRILVDDLSKESQLLHPGGRWLPGAYVNPARNCLSLSSKRRLSDIAVIWRDEGNDDMPVNKMTFQQLRSEVWLVAYALDTLGVEKGSAIAIDMPMDVKSVVIYLAIVLAGYVVVSIADSFAAGEISTRLVLSKAKAIFTQDLIIRGDRSHPLYSRVVDAQSPLAIVIPTRGSSFSIKLRDGDISWHDFLERANTYRNVEFVAVERPVEAFSNILFSSGTTGEPKAIPWTLATPFKAGADAWCHMDVHKGDVVAWPTNLGWMMGPWLIYASLLNGGSLALYNGSPLTSGFAKFVQDAKVTLLGVIPSIVRAWRTNNSTAGFDWSTIRCFGSTGEASNTDECLWLMGRAHYKPVIEYCGGTEIGGGFITGSLLQPQCLSAFSTPSLGCKLLILGEDGIPIPQNAPGIGELALNPLMFGASSTLLNANHYDVYFKGMPSWNGKVLRRHGDVFERTSKGYYRAHGRADDTMNLGGIKVSSVEIERVCNSIDDRILETAAIGVTPSGGGPERLVIVVAFKDGSGSKPDLIKLKVTLNSALQKNLNPLFKVSDVVPFPSLPRTATNKVMRRVLRQQLTQIGQNSKL

activity towards butyric acid (formation of butyryl CoA): efficiently produced butyryl CoA
B3: HuAAE2: H. umbraculigerum acyl activating enzyme, recombinantly expressed in E. coli and purified (protein)
chain: MDALRKPNSANSSPLTPIGFLERAAVVFANSPSIVYNNLIYTWSDTFHRCLRLASSISRLAIRKGDVVSVLAPNIPAIYELHFGITMTGAIINTINTRLDARTISILLCHSESKLVFVDYQLTRLIREAVSLMPDACVPPQLVLIVDDGHNLSLLSDQFINTYEAMVETGDPGFNWVRPDSDWDPLTLNYTSGTTSSPKGVVNSHRGSFIVAFDSLLEWHVPKQPIMLWTLPMFHANGWSFVWGMAAVGGTNVCLRKFDATIIYDTIRNHHVTHMCGAPVVLNMLSEGKPLEHTVHIMTAGAPPPAAVLLRTESLGFEVTHGFGMTETGGLVVSCSWKKEWNRLPVTEKARLKARQGVRTLGMTEVDIVDPESGVSVTRDGLTQGELVLRGGSIMLGYLKDPETTNKSVKNGWFYTGDVAVMHPDGYLEIKDRSKDVIISGGENISSVEVESILYQHPAINEAAVVGRPDEFWGESPCAFVSLKDDNGKVAVPTADEIMKFCKGKLPGYMVPKSVVFKKDLPKTSTGKIQKYVLRKLAKDLGFAVKSRI

activity towards cinnamic acid (formation of cinnamoyl CoA) (substrate cinnamic acid): reacted
activity towards coumaric acid (formation of coumaroyl CoA) (substrate coumaric acid): reacted
activity towards hexanoic acid (substrate hexanoic acid): very high activity
activity towards octanoic acid (substrate octanoic acid): very high activity
B4: HuAAE6: H. umbraculigerum acyl activating enzyme, recombinantly expressed in E. coli and purified; similar to long-chain acyl-CoA synthetases (protein)
chain: MSVYTVKVEDSRAASGETPSAGPVYRCIYAKDALMELPPGYESPWDFFSESVKRNPKNPALGRRQVIDGKAGGYSWLSYQEAYNSALRIASAIRSRSVNPGDRCGIYGPNCPEWIISMEACNSNGITYVPLYDTLGANAVEYIINHAEISLVFVQENKLSAILSCLPNCSSNLKTIVSFGKFSESQKNEAMEHGVDCFSWEEFSSMGNLEDELPAKNKTDICTIMYTSGTTGEPKGVVLSNRAFMSEVLSMHELLIETDKPGTEEDTYFSFLPLAHIFDQIMETYFIYSGASIGFWQGDIRYLIEDLLVLQPTIFCGVPRVYDRIYTGIMAKISTGGAIRKALFDFAYNYKLRNLEKGIQQDKSAPLLDKLVFDKIKQGFGGRVRLMLSGAAPLPKHVEEFLRVTCCTVLSQGYGLTESCGGCFTSIANVYSMIGTVGVPMTTIEARLESVPEMGYDALSSVPCGEICLRGNTLFSGYHKRDDLTDAVLVDGWFHTGDIGEWQADGAMKIIDRKKNIFKLSQGEYVAVESIESTYSRCPLVTSIWVYGNSFESFLVAVVVPDRVAVEEFAAKNNESGDYASLCKNPNVRKYVLEELNAEAQCNKLRGFEMLKAVHLDPVPFDFERDLITPTFKLKRQQLLKYYKDCVEQLYAEAKTSKK
